In the DeepSol protein solubility set:

Test: soluble on expression in E. coli; label from the status in PepcDB or PDB records

Sequence	soluble on expression in E. coli
DSNALWMPYVNGRIRVIVMRNGGGGIFRFIPGPDSLKELETCFETPLEVPVREMAGAYGWRYMKAVSAEELETVLPSFFASGDRAVLLEVETPRFENAPVLKSYFTYISGESYPVNR	not soluble
MSLGQKVRGNLIIIGGAEDKVGKKTILKYVADIVREKKGSLVILTTATQKPQEVGNNYRQVFETLGLMDIDVLNINSRDEADLDENAERIRSSGGIFFTGGDQLRITSILGGTKVYKALHEVYSKGVVIVGTSAGASVMSNTMIVEGKDNEPARKCTMKMAPGLGFLEEAIIDQHFDQRGRIGRLLCGVAENPFMLGIGIDEDTAIRVYPDAHFEVLGSNAVTVIDGSTIKSTNVSELNPDEILAISGVTLHVLPCGYGFDMKKKRSEGHHHHHH	soluble
MVADVKSPAGLAAFNTTLAEQAFATGFVLSGEDAQLFAALGSAPNASTYPNVARWYANVASYTDAERKTWASAGGSAPAAAAADGDDFDLFGSDDEEEDAEKAKIVEERLAAYAEKKAKKAGPIAKSSVILDVKPWDDETDLGEMEKLVRSIEMDGLVWGGAKLIPIGYGIKKLQIITVIEDLKVSVDDLIEKITGDFEDHVQSVDIVAFNKI	not soluble
MGSDKIHHHHHHACRQVATESRVQPASFEVGSSMIADTFFLDSLSLFMPETNEEALINNIDRVYESNGRYFILDKRMKQVLCYTLSGKHLFTIHAVGNGKGEYVDLFDIAIDEAENKLLLLTYPSQILYYDLEGTYLSSYPLDDTYQSFAVDKGFIYLRNDTYANGVVSDYSLIVINKETGKQTSLLEPLYETAPFCSSGNYQITNTASVLFTRKFDNHIYRITGESIEPLYMVDWKDKAFPESDKQRQFQCNDLNQLCYQGKYVYTMTDLCDTPSYLLFRTNQPGMCLLSKATSTVNNYQVIINTDYQLPLPNYMSVEGKQSRIFFIYSSEVLCEQKKLSAEEDINEKMSSLLGQIKEGDNPVIFTYHVK	not soluble
MGSDKIHHHHHHMFEKRVLKIKGGSNFRDLGGYQTHDGKKILWGRLFRGSALNNFTNHDLRVLKRRHINTIIDFRSLDESLNDPDIYPETSNDIRLTVLDQDTTYSTITPEEFHRLSHSNGFAYKQMMNTYRRLITDEFSQQAYRQFFDYLLNQDDGAILFHCTKGKDRTGIATALFFLAVGIDKKTIFQDYLLTDTYNHEQTEVELERMVERGEDDDDIDNVKHFLLTDRNYLENAFAAMDEIAGSPQAYLKKYLGLSDEKIQILRNKYLS	not soluble
MTDLEHAVESNRRAWDASADSHLRGGGWQELSLAVQETGFSCLDETLAGVLRNLDLAGKAAVQVGCNNGREVLSLYAFGVARAVGIDQSAAFLAQARQLAERSPHQPRFVEANAYELPAELNGQFDLLLITIGVLNWMPDIARFFASVSGLLKPGGQLAIYETHPFLEMLEPESERPFELRNDYFTDTPHVSREAIVYEGSGSDTGIASYWYVHPLGDILGGLLGAGLRLSHFKEYPHSNREELYDLYEDGPLAIPMCYTLVAVKA	soluble
YIKMISNAKRSILIQTPYFIPDASLLDALRIACLSGIDVNIMIPNKPDHAFVYWATLSYIGDLLKAGATVYIYDNGFIHAKTIVVDDEIASVGTANIDVRSFRLNFEVNAFIYDITIAKKLVSTFKEDLLVSRKFTYEEYLQRPLWIR	not soluble
GRFSDELVEACAEMVRQRWNPHPEPTWVCCVPSLRHLDLVPDFARRLAAKLGLPFIDAIEKVVDNPPQKMQQNRFHQCQNLDGAFVITPPLMPGPALLVDDIVDSAWTLTVLTALLRQAGCPTVYPLALASTSVK	not soluble
GHMPGRAPGSTLARVGSIPAGDDVLDPDEPTYDLPRVAELLGVPVSKVAQQLREGHLVAVRRAGGVVIPQVFFTNSGQVVKSLPGLLTILHDGGYRDTEIMRWLFTPDPSLTITRDGSRDAVSNARPVDALHAHQAREVVRRAQAMAY	soluble
MGSDKIHHHHHHAEDYMETDKGHDTLTLTVNQQEIVLNEKNHTQEALTLSWTTGTNYGSGNRISYTLEIAKAGTDFARAYSVDLGTGTYQWTKKTEELNQFLNTQLGVGYAEKVSLEARITATVAGMEEKEQRATVALDVTTYQPVTPTLYLIGEAAPNGWSADQATPMERTDNGQFTWTGKLNTGVFKFITTLGEFLPSYNRDAAAGEELRLIYRTSGDEPDEPFTVSKEATYIVKVDLLDLTMTMTETENIGWRFEEFYIVGSFTGDNGWGFEALSKDAVQMNLFHYGAVIPWKADGDFKFTSVTDFGQSDAFFHPTEGNAPYTSTSVVLGGEDNKWQMKESECGKAYKVLFLTAKGKEKMLMRPFTPYEGLYLVGDATPNGWSIDNATPMAKSADSPYIFTWSGTLNTGEMKISCDKQSDWNGDWLMADKSGKAPTGEVETALFTSKTDAELKNMYPDTDLGSLDNKWNIQEAGSYRITIDQLKETISIVKQ	not soluble
MGSDKIHHHHHHMAIIETRGIWLTTTDSKVLRSKQRIAEAMDLLAETGFNVVFPVVWNKAVTLYPSQTMQETFGVEIDPMSVGRDPLEEVVVEARRVGLKVIPWFEYGFASSYNLNGGVLLQKKPEWAARDFNGNLLNKNGFEWLNALDSQVQEFFLNLVLEVVKNYDVDGVQGDDRLPAFPCEGGYDEGTVSRYRQEYDRNPPQNPKDRQWLQWRADILTDFLARLYGEVKAVNPNLLVAIAPNIHDWAFQEYLQDSPTWLKRGIVDMIQPQIYRRDFGSYCAIADKLVSQQFTDATLPRLAPGILMKLGSYCISPEYLVQAIEYNRQLGIQGEVFFFYEGLRENNNTLAKVLRNGPYAKSASFPTLSDLSVSGVSNKKTSSTWQRLLKKIF	not soluble
MEVFVFTPKGDLYKMPKGATVLDFAFAIHSKLGSKCIGAKVNGKNAQLKQTLNSGLEHHHHHH	not soluble
MSLTELPKEFLEDIEEILKDEYDDFIKSYEESKTTGLRINTLKIDKKKLFDLELFDLNQIPWAEEGFYYDDKIDRPGRNPLHEAGAYYLQEPSAMSVIPKADIKEGEKVLDMCAAPGGKSTYILSKLNDTGLLVSNEINASRIKALGENLERFGARNCIITNTDSNSLRKTFNGYFDKVIIDAPCSGQGMFRKDEVAISDWSYAKVVECQSIQKEIIRDGYKMLKKDGILIYSTCTFSREENEHVINEFISEYPHAELIEMERLWPHKIKGEGHFVAKIKKLEEEECNVKELKIKNLDKEIKDYREFEKKFLKVDFYSNKKNKFYLRGENLYLLPEIYPDTKKLKVLRYGLHLGVLKKNRFEPSHALSHYLKVEDVKNVENFSVQSESILKYLKGDVVNSNDSRGWVLVSVEGIPLGWGKESSGVIKNHYPKGLRKVEGHHHHHH	soluble
MILVDSDVLIAHLRGVVAARDWLVSARKDGPLAISVVSTAELIGGMRTAERREVWRLLASFRVQPATEVIARRAGDMMRRYRRSHNRIGLGDYLIAATADVQDLQLATLNVWHFPMFEQLKPPFAVPGHRPRA	not soluble
MNFIIEPGSLADIDELERLYDELNDHLSATINYPGWIKGIYPVRENAAAGVDDNSLFVARCDGRIAGSVILDHQPEKAYENIVWKIDADYSYIFVVRTFVVHPSFLQMGVGHALMDFSLELALKSEMKSIRLDVYEKNLPAISLYEKCGFEYIDTVDLGLGHYGLDWFKLYEKVI	not soluble
MLSDYEEFLRLEKARKIILEILNEKGRDALYDLSGLSGGFLIDEKDKALLNTYIGSSYFAEKVNEYGLKHLGGDENDKCVGFNRTSSAILATILALKPKKVIHYLPELPGHPSIERSCKIVNAKYFESDKVGEILNKIDKDTLVIITGSTMDLKVIELENFKKVINTAKNKEAIVFVDDASGARVRLLFNQPPALKLGADLVVTSTDKLMEGPRGGLLAGKKELVDKIYIEGTKFGLEAQPPLLAGIYRALKNFNLERIRKAFERAKNFDLSKIEKLNKELKAIDDNINIVYERTPTGFVIKRVYKDDTINIKKLIEIGFNLLKNYGIITITVAGMPGASKSLRIDLTSRDAERIDDNYIIKAIVESIKMAFKS	soluble
MIHETAQIHPTSVVEEGAIIGANVKIGPFCFVDSKVEIGEGTELLSHVVVKGPTKIGRFNRIFQFASIGEACQDLKYAGEDTQLIIGDRNTIRESVTMHRGTVQDKGITIVGSDNLFMINAHVAHDCVIGDRCIFANNATLAGHVKVGNQAIVGGMSAIHQFCHIGDHCMLGGGSIVVQDVPPYVMAQGNHCAPFGINVEGLKRRGFDKAEIHAIRRAYKSLYRNGLTLEAAKAEIAQEAEQYPSVKLFLDFLEKSERGIIR	not soluble
MGSDKIHHHHHHMRRPRRPQDFLEYEKVLKFKESEKQIEETETKGDVRVALVVPSGYEVAASGLAFHYVQKLLNSHPRIRCERFFYDETFKKFYSLETQTPIDEFPIWLFSVSFENDFSNLLDILKKKDVPLSWKEREDYHPLIIIGGAVTYLNEEFLIPVADAVYYGELEKYLDLFTEALTGETKQEILSSLSRIPSVEVPSLKEHSEIATGVDLNDFLPHSSVVPSRGVFPGKLLVEVGRGCIRRCAFCIFGKNLKPARFVKPERFEELVKNTPYSEYGLISATITDYPWLEDLLDTVEKYQLKISVSSLRLDRLSERLLRTLKDSGQRSFTIAPEAGSQRIRDILKKDITDEQIENALKLARKLDFDRVKMYFIYGLEEETEEDLEAFKKLGDLAVRLGYREVHMSFNPLIPKPGTEFERRKMEPVDVLRKKEKILKNLLKGFRVDFESIRESVVQYTIAHAGKEEVESWLKFFEKSDKKLLGKLIYEEGRKRLC	not soluble
GSHMTRTRMENELIVSKNMQNIIIAGNGPSLKNINYKRLPREYDVFRCNQFYFEDKYYLGKKIKAVFFNPGVFLQQYHTAKQLILKNEYEIKNIFCSTFNLPFIESNDFLHQFYNFFPDAKLGYEVIENLKEFYAYIKYNEIYFNKRITSGVYMCAIAIALGYKTIYLCGIDFYEGDVIYPFEAMSTNIKTIFPGIKDFKPSNCHSKEYDIEALKLLKSIYKVNIYALCDDSILANHFPLSININNNFTLENKHNNSINDILLTDNTPGVSFYKNQLKADNKIMLNFY	soluble
MGHHHHHHSHMWVDDFPLHRSACEGDSELLSRLLSERFSVNQLDSDHWAPIHYACWYGKVEATRILLEKGKCNPNLLNGQLSSPLHFAAGGGHAEIVQILLNHPETDRHITDQQGRSPLNICEENKQNNWEEAAKLLKEAINKPY	not soluble
MSLAEVAEVSEQDFGEILAQTRQFVRTAVVPREQEILDGDRVPDDLRDQARKMGLFGYAIPQQWGGLGLNLMQDVELAMELGYTSLALRSMFGTNNGIAGQVLVGFGTEAQKARWLEPMAAGDVVASFALTEPGAGSNPAGLRTKAVADGDNWVISGQKRFITNAPVADLFVVFARTRPADDQGPGIAVFLVPADAAGVQVGAKDAKMGQEGAWTADVSFDDVRVGGDALIGGSENIGYRAAMTSLARGRVHIAALAVGAAQRALDESVSYAATATQGGTPIGNFQLVQAMLADQQTEVLAGRALVREAARLWVTGEDRRVAPSAAKLYCTEMAGRVADLAVQVHGGSGYMRGVPVERIYRDVRLLRLYEGTSEIQRLIIGSNLVKAAQREGHHHHHH	soluble
GSIGLEAEIETTTDETDDGTNTVSHILNVLKDATPIEDVFSFNYPEGIEGPDIKYKKEHVKYTYGPTFLLQFKDKLNVKADAEWVQSTASKIVIPPGMGR	soluble
MMSTSIPDVAVHDSPAIAAPLRWVGMDGIVVPVQLTTADGGQHVIGRARAQIDLPAMGVKGIHMSRLYRLLDTYAVEPLTPVGICGLLSAMVNSHADCASTAARVDWYFDWLRRVPALVSNDLSGWRGYPVWLRAEYSAGHVQFWLCVEVAYSSTCPCSAALARQMLADAFLQEHVEVSALSPETVADWLRSNGSYATPHSQRSLARIEVALTEQAVELGLPALVDCAERILSTPVQAAVRRVDEQAFARLNGANLMYVEDATRRLQHGLAIHYSAFRVHVRHLESLHPNDAVASTADE	not soluble
EHGWCGHLCPLGAAYGVIGRKSLLRVTAVRREDCTKCMDCFYVCPEPEVLRQPLKEGDRRVMVQNCISCGRCLDVCPEQVFEFKNRLNVKNID	not soluble
